T1: Boi2 SH3 (BOI2_YEAST), P39969
T1 chain: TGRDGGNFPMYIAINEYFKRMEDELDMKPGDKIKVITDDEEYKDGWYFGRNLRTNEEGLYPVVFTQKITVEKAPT

T2: Yfr024 SH3 (LSB3_YEAST), P43603
T2 chain: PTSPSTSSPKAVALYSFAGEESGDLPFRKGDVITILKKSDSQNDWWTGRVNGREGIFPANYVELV

T3: Yhr016c SH3 (YSC84_YEAST), P32793
T3 chain: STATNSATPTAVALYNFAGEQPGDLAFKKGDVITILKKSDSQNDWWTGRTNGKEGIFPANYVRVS

T4: Rvs167 SH3 (RV167_YEAST), P39743
T4 chain: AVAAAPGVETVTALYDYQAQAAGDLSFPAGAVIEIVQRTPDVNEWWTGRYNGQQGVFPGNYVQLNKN

T5: Boi1 SH3 (BOI1_YEAST), P38041
T5 chain: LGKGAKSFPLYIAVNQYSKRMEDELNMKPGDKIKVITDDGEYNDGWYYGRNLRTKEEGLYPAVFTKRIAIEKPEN


Key:
Assay in all cases: SPOT array
[1] = molecular target: T1, Boi2 SH3 (BOI2_YEAST), P39969
[2] = molecular target: T2, Yfr024 SH3 (LSB3_YEAST), P43603
[3] = molecular target: T3, Yhr016c SH3 (YSC84_YEAST), P32793
[4] = molecular target: T4, Rvs167 SH3 (RV167_YEAST), P39743
[5] = molecular target: T5, Boi1 SH3 (BOI1_YEAST), P38041

Row | normalised SPOT signal, Boehringer light units (BLU); mean over the file's lines of this peptide [1] | normalised SPOT signal, Boehringer light units (BLU); mean over the file's lines of this peptide [2] | normalised SPOT signal, Boehringer light units (BLU); mean over the file's lines of this peptide [3] | normalised SPOT signal, Boehringer light units (BLU); mean over the file's lines of this peptide [4] | normalised SPOT signal, Boehringer light units (BLU); mean over the file's lines of this peptide [5] | Binder
1 | 34.4 | 122 | 239 | 23 | 124 | MTDPDAPSRTEHKW [YLR179C 77-90]
2 | 25.8 | 109 | 257 | 55.3 | 32.9 | MTAPLWPNKNEKNH [YOR337W 1-14]
3 | 168 | 1240 | 1100 | 261 | 81.1 | MRAPPSPRKSKSGH [YOR255W 1-14]
4 | 34.4 | 56.6 | 109 | 32.5 | -0 | MTDPDAPSKTDHKW [YLR178C 93-106]
5 | 48.5 | 1870 | 288 | 32.9 | 2020 | NAKPPLPIKAVTRP [YJL201W 440-453]
6 | 59.7 | 1090 | 423 | 70.8 | 34.7 | MLIPNFPNKKLKLN [YHR086W 128-141]
7 | 55 | 288 | 66.7 | 11 | 13.5 | MPTPMTPVKVGALA [YNL040W 1-14]
8 | 64.8 | 48.9 | 105 | 19.9 | 74.2 | MSEPEVPFKVVAQF [YJL020C 1-14]
9 | 88.4 | 620 | 768 | 163 | 187 | MVTPREPKKRTTRK [YPR052C 1-14]
10 | 651 | 15900 | 13800 | 1270 | 2850 | MQGPKIPWRSGRVD [YKR066C 186-199]

The next lines start with the binder.

Row | Binder | normalised SPOT signal, Boehringer light units (BLU); mean over the file's lines of this peptide [1] | normalised SPOT signal, Boehringer light units (BLU); mean over the file's lines of this peptide [2] | normalised SPOT signal, Boehringer light units (BLU); mean over the file's lines of this peptide [3] | normalised SPOT signal, Boehringer light units (BLU); mean over the file's lines of this peptide [4] | normalised SPOT signal, Boehringer light units (BLU); mean over the file's lines of this peptide [5]
11 | MVLPPAPPKNSDPS [YFL036W 764-777] | 34.7 | 892 | 273 | 79.6 | 54
12 | MSLPVTPVKSKVSS [YER032W 50-63] | 37.9 | 2120 | 257 | 111 | 0.6
13 | MKAPKMPDKHRDNY [YDL031W 923-936] | 162 | 1760 | 399 | 331 | 163
14 | MEYPFKPPKMQFDT [YDR177W 60-73] | 55.1 | 483 | 178 | 68.7 | 56.3
15 | MVRPAPPRRADPEG [Q0297 11-24] | 1310 | 18800 | 7790 | 14400 | 3640
16 | MVTPSKPPKKSVGF [YCL063W 147-160] | 85.1 | 2650 | 361 | 114 | 149
17 | MALPRTPLKTSTEE [YCL009C 276-289] | 101 | 1130 | 280 | 338 | 100

— article PMC314469, “Protein Interaction Networks by Proteome Peptide Scanning” (PLoS Biology, 2004)
